First the molecules themselves.
B1: FS17-33-289AA/HelD1.3 mock mAb^2 (bispecific antibody, human IgG1, kappa, L234A L235A)
heavy: QVQLQESGPGLVRPSQTLSLTCTVSGSTFSGYGVNWVRQPPGRGLEWIGMIWGDGNTDYNSALKSRVTMLVDTSKNQFSLRLSSVTAADTAVYYCARERDYRLDYWGQGSLVTVSSASTKGPSVFPLAPSSKSTSGGTAALGCLVKDYFPEPVTVSWNSGALTSGVHTFPAVLQSSGLYSLSSVVTVPSSSLGTQTYICNVNHKPSNTKVDKKVEPKSCDKTHTCPPCPAPEAAGGPSVFLFPPKPKDTLMISRTPEVTCVVVDVSHEDPEVKFNWYVDGVEVHNAKTKPREEQYNSTYRVVSVLTVLHQDWLNGKEYKCKVSNKALPAPIEKTISKAKGQPREPQVYTLPPSRDESGYWVSLTCLVKGFYPSDIVVEWESNGEPQYWAKTTPPVLDSDGSFFLYSKLTVSNWRWQLDDFSCSVMHEALHNHYTQKSLSLSPGK
light: DIQMTQSPASLSASVGETVTITCRASGNIHNYLAWYQQKQGKSPQLLVYNAKTLADGVPSRFSGSGSGTQYSLKINSLQPEDFGSYYCQHFWSTPRTFGGGTKLEIKRTVAAPSVFIFPPSDEQLKSGTASVVCLLNNFYPREAKVQWKVDNALQSGNSQESVTEQDSKDSTYSLSSTLTLSKADYEKHKVYACEVTHQGLSSPVTKSFNRGEC
notes: also called F17-33-289AA/HelD1.3; F17-33-289AA/HELD1.3
B2: FS17-33-449AA/HelD1.3 mock mAb^2 (bispecific antibody, human IgG1, kappa, L234A L235A)
heavy: QVQLQESGPGLVRPSQTLSLTCTVSGSTFSGYGVNWVRQPPGRGLEWIGMIWGDGNTDYNSALKSRVTMLVDTSKNQFSLRLSSVTAADTAVYYCARERDYRLDYWGQGSLVTVSSASTKGPSVFPLAPSSKSTSGGTAALGCLVKDYFPEPVTVSWNSGALTSGVHTFPAVLQSSGLYSLSSVVTVPSSSLGTQTYICNVNHKPSNTKVDKKVEPKSCDKTHTCPPCPAPEAAGGPSVFLFPPKPKDTLMISRTPEVTCVVVDVSHEDPEVKFNWYVDGVEVHNAKTKPREEQYNSTYRVVSVLTVLHQDWLNGKEYKCKVSNKALPAPIEKTISKAKGQPREPQVYTLPPSRDETGYWVSLTCLVKGFYPSDIAVEWESNGEPQYWAKTTPPVLDSDGSFFLYSKLTVSNWRWQLDDVFSCSVMHEALHNHYTQKSLSLSPGK
light: B1 light
B3: FS17-33-334AA/HelD1.3 mock mAb^2 (bispecific antibody, human IgG1, kappa, L234A L235A)
heavy: B1 heavy with V376A
light: B1 light
B4: FS17-33-288AA/HelD1.3 mock mAb^2 (bispecific antibody, human IgG1, kappa, L234A L235A)
heavy: B1 heavy with L417I
light: B1 light
notes: also called F17-33-288AA/HelD1.3; F17-33-288AA/HELD1.3
B5: FS17-33-451AA/HelD1.3 mock mAb^2 (bispecific antibody, human IgG1, kappa, L234A L235A)
heavy: B2 heavy with T357E
light: B1 light
notes: also called F17-33-451AA/HelD1.3; F17-33-451AA/HELD1.3
B6: FS17-33-296AA/HelD1.3 mock mAb^2 (bispecific antibody, human IgG1, kappa, L234A L235A)
heavy: B1 heavy with L417V
light: B1 light
notes: also called F17-33-296AA/HelD1.3; F17-33-296AA/HELD1.3
B7: Fcab FS17-33-289 (designed binder)
chain: TCPPCPAPELLGGPSVFLFPPKPKDTLMISRTPEVTCVVVDVSHEDPEVKFNWYVDGVEVHNAKTKPREEQYNSTYRVVSVLTVLHQDWLNGKEYKCKVSNKALPAPIEKTISKAKGQPREPQVYTLPPSRDESGYWVSLTCLVKGFYPSDIVVEWESNGEPQYWAKTTPPVLDSDGSFFLYSKLTVSNWRWQLDDFSCSVMHEALHNHYTQKSLSLSPGK
B8: Fcab FS17-33-288 (designed binder)
chain: B7 chain with L194I
B9: Fcab FS17-33-296 (designed binder)
chain: B7 chain with L194V
B10: Fcab FS17-33-334 (designed binder)
chain: B7 chain with V153A

Residue numbers refer to the chain shown, from its start.

T2 sequence (Q9NZQ7 19-238 limits assumed): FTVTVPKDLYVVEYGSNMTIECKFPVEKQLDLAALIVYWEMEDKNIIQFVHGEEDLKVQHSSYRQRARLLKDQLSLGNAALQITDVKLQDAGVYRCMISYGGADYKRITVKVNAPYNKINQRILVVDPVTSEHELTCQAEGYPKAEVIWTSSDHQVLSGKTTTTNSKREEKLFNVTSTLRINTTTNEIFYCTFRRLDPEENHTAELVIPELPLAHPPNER
T4 sequence (Q9NZQ7 19-238 limits assumed): as above

The first assay deals with T1, Human PD-L1 expressed on cells (human, UniProt Q9NZQ7 19-290). The experiment in a line: cell-based or functional assay.
T1 sequence (Q9NZQ7 19-290 limits assumed): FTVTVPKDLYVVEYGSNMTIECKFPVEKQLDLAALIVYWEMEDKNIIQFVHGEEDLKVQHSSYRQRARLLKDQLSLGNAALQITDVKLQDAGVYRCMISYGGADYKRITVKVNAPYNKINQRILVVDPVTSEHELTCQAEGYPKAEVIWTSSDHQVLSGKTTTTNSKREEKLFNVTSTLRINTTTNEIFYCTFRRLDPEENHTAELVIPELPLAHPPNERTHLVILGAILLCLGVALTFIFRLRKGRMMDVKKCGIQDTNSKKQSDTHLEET
In the case of B1, the “DO11.10 T cell activation assay EC50” value is 1.55 nM.

Consider B2, for which the “DO11.10 T cell activation assay EC50” value amounted to 0.95 nM.

As to B3, the “DO11.10 T cell activation assay EC50” value is 0.934 nM.

B4: the “DO11.10 T cell activation assay EC50” value was 0.428 nM.

For B5, the “DO11.10 T cell activation assay EC50” value is 1.03 nM.

For B6, the “DO11.10 T cell activation assay EC50” value was 1.12 nM.

The next assay addresses T1, Human PD-L1 expressed on cells. The experiment in a line: cell-based or functional assay. This is another data set of the same source.
In the case of B3, the “DO11.10 EC50” value is 0.403 nM.

The next assay addresses T2, Monomeric His-tagged human PD-L1 (Acro biosystems PD1-H5229) (human, UniProt Q9NZQ7 19-238).
T2 construct: also called hPD-L1-his; PD-L1-his
The assay can be described thus: SPR Biacore T200, Fcab captured on protein A chip, monomeric antigen in flow, 1:1 fit.
The term Kd denotes the equilibrium constant for the complex coming apart. A high value points to lower affinity. The molecule B7 yielded a dissociation constant Kd of 0.54 nM.

With B8, the dissociation constant (Kd) came out at 1.6 nM. Compared with the last molecule, the Kd is about 3-fold higher.

In the case of B9, the affinity, expressed as Kd, was 0.73 nM.

The molecule B10 gave a Kd of 1.93 nM.

The target in the next assay is T3, Monomeric cynomolgus PD-L1 (Acro Biosciences PD1-C52H4) (cynomolgus, UniProt Q9NZQ7 19-238 (human entry)).
T3 construct: also called cynomolgus monomeric PD-L1
T3 sequence (Q9NZQ7 other isoform, or with tags, fused parts or gaps limits assumed): as the sequence (Q9NZQ7 19-238 limits assumed) above, with A33T, A34S, S62N, R68Q, Q82R, F173L, T185A, T192I, H215L counted along it
The description is as above.
The molecule B7 yielded a Kd of 0.66 nM.

In turn, B8 showed a Kd of 2.1 nM.

B9: the dissociation constant Kd amounted to 0.87 nM.

Consider B10, for which the Kd was 2.18 nM. This Kd is about 2.5-fold higher than that of the molecule before.

For a further assay, the target named is T4, Biotinylated hPD-L1-Fc-Avi (human, UniProt Q9NZQ7 19-238). The assay can be described thus: cell-based RBA, blocking of hPD-L1-Fc-Avi binding to HEK293 hCD80 cells. On the procedure:
(§1) The ability of the Fcabs and mock mAb² to block hPD-1/hPD-L1 and hPD-L1/hCD80 interactions was tested in cell-based Receptor Binding Assays (RBA). […] The mix was incubated for another hour with HEK293 cells overexpressing either hPD-1 or hCD80.
The term EC50 denotes the concentration that produces a half-maximal response. B7 displayed an EC50 of 9.2 nM.

Turning to B8, a half-maximal response (EC50) required 0.79 nM. This EC50 lies about 12-fold lower than the previous one.

As for B9, the concentration giving a half-maximal response (EC50) was found to be 8.8 nM. Compared with the last molecule, the EC50 is about 11-fold higher.

Regarding B10, the midpoint of the response, the EC50, lay at 0.55 nM.

The next assay has as its target T4, Biotinylated hPD-L1-Fc-Avi. The experiment in a line: cell-based RBA, blocking of hPD-L1-Fc-Avi binding to HEK293 hPD-1 cells. On the procedure: as §1
As for B7, the response was half-maximal at 10.1 nM (EC50).

In turn, B8 had a concentration giving a half-maximal response (EC50) of 2.8 nM.

B9 came in with an EC50 of 9 nM.

Molecule B10 registered a half-maximal effective concentration (EC50) of 0.99 nM. Against the preceding molecule, the EC50 is about 9.1-fold lower.

A further assay concerns the target T2, Monomeric His-tagged human PD-L1 (Acro …). The experiment in a line: off-rate, binding to hPD-L1, mock mAb^2; instrument not stated.
Broadly, the koff is the first-order rate constant of dissociation. High values mean a short-lived complex, low ones a long-lived complex. Turning to B2, the dissociation rate constant (koff) is 0.000311 s⁻¹.

On to B3, for which the off-rate constant (koff) turned out to be 0.000291 s⁻¹. This koff and that of the molecule before are within 1.5-fold of each other.

B5 showed a koff of 0.000253 s⁻¹.

The target is the same in another assay. The experiment in a line: off-rate on PD-L1, mock mAb^2; instrument not given.
Consider B3, for which the off-rate constant (koff) was 0.000372 s⁻¹.

In a further assay the target is T5, Cynomolgus PD-L1 expressed on HEK 293 cells (cynomolgus, UniProt Q9NZQ7 19-290 (human entry)).
T5 construct: also called cell-expressed cynomolgus PD-L1
T5 sequence (Q9NZQ7 other isoform, or with tags, fused parts or gaps limits assumed): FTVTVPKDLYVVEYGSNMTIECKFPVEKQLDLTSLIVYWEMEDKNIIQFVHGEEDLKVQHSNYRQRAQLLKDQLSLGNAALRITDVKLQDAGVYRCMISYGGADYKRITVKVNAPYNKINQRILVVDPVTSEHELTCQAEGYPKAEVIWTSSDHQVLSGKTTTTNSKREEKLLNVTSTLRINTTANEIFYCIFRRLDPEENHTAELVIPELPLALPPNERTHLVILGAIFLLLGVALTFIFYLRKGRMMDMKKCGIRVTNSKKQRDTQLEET
The assay can be described thus: flow cytometry, HEK293 cells overexpressing the target, anti-human Fc 488. On the procedure:
(§2) Cell binding assays were performed by incubating Fcabs or mAb² proteins with either control HEK293 cells or HEK293 cells overexpressing hPD-L1 or cynomolgus PD-L1 cells for 1 hour at 4° C. Fcab/mAb binding was subsequently detected using an anti-human Fc 488 detection antibody. Fluorescent signal intensities were measured using a FACS canto.
For orientation: In flow cytometry, cells or beads pass a laser one at a time.
As for B1, binding was characterised by a dissociation constant (Kd) of 2.2 nM.

With B3, the affinity, expressed as Kd, was 0.91 nM.

Consider B4, for which the dissociation constant (Kd) came to 7.8 nM.

For the molecule B6, the equilibrium dissociation constant (Kd) came to 2 nM.

As to B7, the Kd was determined as 0.44 nM.

On to B8, for which binding was put at a Kd of 2.6 nM.

B9 returned a Kd of 0.5 nM. This Kd is about 5.2-fold lower than that of the molecule before.

For B10, the equilibrium dissociation constant (Kd) came out at 0.68 nM. The Kd values of the last two molecules are within 1.5-fold of each other.

The target of another assay is T1, Human PD-L1 expressed on cells. The description is as above. How it is done: as §2
The molecule B1 came in with a Kd of 3.9 nM.

The molecule B3 returned a Kd of 8.9 nM. This Kd lies about 2.3-fold higher than the previous one.

Take B4: binding was characterised by a dissociation constant (Kd) of 15.2 nM.

B6 registered an equilibrium dissociation constant (Kd) of 2.7 nM.

Regarding B7, the affinity, expressed as Kd, was 1 nM.

With B8, binding was characterised by a dissociation constant (Kd) of 2.5 nM. Against the preceding molecule, the Kd is about 2.5-fold higher.

For the molecule B9, the affinity, expressed as Kd, was 1 nM.

Turning to B10, the equilibrium dissociation constant (Kd) came out at 2.06 nM. This Kd lies about 2.1-fold higher than the previous one.

A further assay concerns the target T2, Monomeric His-tagged human PD-L1 (Acro …). The assay can be described thus: SPR Biacore T200, mAb^2 captured by anti-Fab on CM5, monomeric antigen in flow, 1:1 fit. Background: In SPR one partner is held on a chip, and binding of the other changes the refractive index at the surface.
In turn, B2 displayed a Kd of 0.49 nM.

B3 displayed a Kd of 1.45 nM.

Regarding B4, the affinity, expressed as Kd, was 1.43 nM.

Consider B5, for which the affinity, expressed as Kd, was 0.45 nM.

The target of a further assay is T3, Monomeric cynomolgus PD-L1 (Acro …). The description is as above.
Turning to B2, the Kd came out at 0.9 nM.

In the case of B3, the Kd was found to be 1.9 nM. This Kd lies about 2.1-fold higher than the previous one.

B4 returned a Kd of 2 nM. The Kd values of the last two molecules are within 1.5-fold of each other.

For B5, the Kd turned out to be 0.63 nM.

The record behind these values is patent US20230406935A1 (F STAR THERAPEUTICS, published 2023).
